# Data: patent US20200223885A1 (TOSOH, published 2020)
# B1: FcR9_F_Cys (FcR9_F with a cysteine tag added) (receptor)
# chain: MGMRTEDLPKAEVILEPQWNRVLEKDSVTLKCRGAYSPEDNSTQWFHNESLISSQASSYLIDAATVDDSGEYRCQTSLSTLSDPVQLEVHIGWLLLQAPRWEFKEGDPIHLRCHSWKNTALHKVTYLQNGKGRKYFHHNSDFYIPKATLKDSGSYSCRGLFGSKNVSSETVNITITQGCRNDTCG
# notes: also called FcR9_F-immobilized gel; FcR9_F column
# B2: Fc-binding protein FcR9 (human FcγRIIIa amino acid substitution product) (receptor)
# chain: KIEEAMGMRTEDLPKAEVILEPQWNRVLEKDSVTLKCRGAYSPEDNSTQWFHNESLISSQASSYLIDAATVDDSGEYRCQTSLSTLSDPVQLEVHIGWLLLQAPRWEFKEGDPIHLRCHSWKNTALHKVTYLQNGKGRKYFHHNSDFYIPKATLKDSGSYSCRGLVGSKNVSSETVNITITQGGHHHHHH
# Legend:
# [1] = biological target: T1, monoclonal antibody (RITUXAN, manufactured by Zenyaku Kogyo Co., Ltd.); test: affinity chromatography on the FcR9_F-immobilized gel column; equilibration 20 mM acetate, 50 mM NaCl, pH 5.0; elution by pH gradient to 10 mM glycine-HCl pH 3.0; 0.6 mL/min; A280
# T1 construct: That tie rests on the trade name; also called rituximab
# T1 sequence (heavy, as listed by the source, chain 1 of 2): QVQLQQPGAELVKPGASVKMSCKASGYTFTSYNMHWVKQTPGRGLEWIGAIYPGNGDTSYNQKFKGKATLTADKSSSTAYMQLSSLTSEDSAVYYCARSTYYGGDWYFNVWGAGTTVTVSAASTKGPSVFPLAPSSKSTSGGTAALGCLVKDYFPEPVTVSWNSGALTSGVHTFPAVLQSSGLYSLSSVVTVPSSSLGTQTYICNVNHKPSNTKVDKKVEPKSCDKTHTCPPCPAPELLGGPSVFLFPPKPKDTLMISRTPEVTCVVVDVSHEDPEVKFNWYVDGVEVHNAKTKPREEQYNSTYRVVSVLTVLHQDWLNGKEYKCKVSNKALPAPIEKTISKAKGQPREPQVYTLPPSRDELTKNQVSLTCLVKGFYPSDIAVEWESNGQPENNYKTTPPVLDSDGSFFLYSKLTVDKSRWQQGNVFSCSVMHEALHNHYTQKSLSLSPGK
# T1 sequence (light, as listed by the source, chain 2 of 2): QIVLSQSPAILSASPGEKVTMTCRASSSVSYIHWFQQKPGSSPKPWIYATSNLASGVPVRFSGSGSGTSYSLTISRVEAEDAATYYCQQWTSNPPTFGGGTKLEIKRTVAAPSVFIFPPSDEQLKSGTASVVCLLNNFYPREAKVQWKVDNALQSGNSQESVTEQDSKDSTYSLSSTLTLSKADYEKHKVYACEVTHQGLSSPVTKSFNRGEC
# Protocol: (4) Five microliters of a monoclonal antibody (RITUXAN, manufactured by Zenyaku Kogyo Co., Ltd.), which was diluted with phosphate buffered saline (PBS) (pH 7.4) to yield a concentration of 1.0 mg/mL, was added at a flow rate of 0.6 mL/min.
# (5) Washing was performed with the equilibration buffer for 2 minutes while the flow rate was maintained at 0.6 mL/min. Subsequently, a monoclonal antibody adsorbed was eluted with a pH gradient of 10 mM glycine-HCl buffer (pH 3.0) (i.e., a gradient in which 10 mM glycine-HCl buffer (pH 3.0) accounts for 100% in 28 minutes).
# [2] = biological target: T2, IgG1 (manufactured by Sigma-Aldrich); test: SPR (Biacore T100), Fc-binding protein amine-coupled to CM5, IgG1 as analyte
# T2 construct: Analyte in the SPR assay, diluted in HBS-EP; also called IgG1 antibody
# Protocol: (7) IgG1-binding ability of each Fc-binding protein collected as the elution fraction in (6) was evaluated using the surface plasmon resonance method. Upon measurement of the binding ability using the surface plasmon resonance method, Biacore T100 (manufactured by GE Healthcare) was used as a measurement system, Sensor Chip CM5 (manufactured by GE Healthcare) was used as a sensor chip, and Biacore T100 Evaluation Software (manufactured by GE Healthcare) was used as analysis software.
# (8) A solution prepared by diluting IgG1 (manufactured by Sigma-Aldrich) with HBS-EP (manufactured by GE Healthcare) was supplied to a sensor chip on which each Fc-binding protein was separately immobilized using an Amine Coupling Kit (manufactured by GE Healthcare), thereby obtaining a sensorgram. Curve fitting was performed based on the sensorgram so as to calculate IgG1-binding ability.
Binder,binding result [1],Kd [2] [nM],koff [2] [s⁻¹],kon [2] [M⁻¹ s⁻¹]
B1,binds,,,
B2,,77.3,0.0313,405000
